B1: Pistol ribozyme (parent)
chain: GGGUCGUUGUUCCAUAAUCGCGUGGAUAUGGCACGCAAGUUUCUACCGGGCACCGUAAAUGUCCGACUGGAGCCGUUCGGGCGGCUAUAAACAGACCUCAGGCCCGAAGCGUGGCGGCACCUGCCGCCGGUGGUAAAAAAGAUCGGAAGAGCACACGUCU

The record followed here is the RNAGym collection of RNA variant scans (doi:10.1021/acssynbio.7b00057).

The data set covers variants of B1. Description: aptazyme ON/OFF ratio, guanine; higher = stronger switching; co-transcriptional cleavage with and without guanine.
For GGGUCGAUGACAAAUAAUCGCGUGGAUAUGGCACGCAAGUUUCUACCGGGCACCGUAAAUGUCCGACUGGAGCCGUUCGGGCGGCUAUAAACAGACCUCAGGCCCGAAGCGUGGCGGCACCUGCCGCCGGUGGUAAAAAAGAUCGGAAGAGCACACGUCU [U7A U10A U11C C12A C13A], the “aptazyme ON/OFF ratio” value was 1.1. Next, GGGUCGCCGUCAGAUAAUCGCGUGGAUAUGGCACGCAAGUUUCUACCGGGCACCGUAAAUGUCCGACUGGAGCCGUUCGGGCGGCUAUAAACAGACCUCAGGCCCGAAGCGUGGCGGCACCUGCCGCCGGUGGUAAAAAAGAUCGGAAGAGCACACGUCU [U7C U8C U11C C12A C13G]: 1.18. Turning to GGGUCGCUGGUGGAUAAUCGCGUGGAUAUGGCACGCAAGUUUCUACCGGGCACCGUAAAUGUCCGACUGGAGCCGUUCGGGCGGCUAUAAACAGACCUCAGGCCCGAAGCGUGGCGGCACCUGCCGCCGGUGGUAAAAAAGAUCGGAAGAGCACACGUCU [U7C U10G C12G C13G], the “aptazyme ON/OFF ratio” value was found to be 1.13.

On to GGGUCGAGGGCGCAUAAUCGCGUGGAUAUGGCACGCAAGUUUCUACCGGGCACCGUAAAUGUCCGACUGGAGCCGUUCGGGCGGCUAUAAACAGACCUCAGGCCCGAAGCGUGGCGGCACCUGCCGCCGGUGGUAAAAAAGAUCGGAAGAGCACACGUCU [U7A U8G U10G U11C C12G], for which the “aptazyme ON/OFF ratio” value amounted to 1.14.

With GGGUCGUGCAAUAAUAAUCGCGUGGAUAUGGCACGCAAGUUUCUACCGGGCACCGUAAAUGUCCGACUGGAGCCGUUCGGGCGGCUAUAAACAGACCUCAGGCCCGAAGCGUGGCGGCACCUGCCGCCGGUGGUAAAAAAGAUCGGAAGAGCACACGUCU [U8G G9C U10A U11A C12U C13A], the “aptazyme ON/OFF ratio” value was determined as 1.14. Take GGGUCGUCAACUAAUAAUCGCGUGGAUAUGGCACGCAAGUUUCUACCGGGCACCGUAAAUGUCCGACUGGAGCCGUUCGGGCGGCUAUAAACAGACCUCAGGCCCGAAGCGUGGCGGCACCUGCCGCCGGUGGUAAAAAAGAUCGGAAGAGCACACGUCU [U8C G9A U10A U11C C12U C13A]: the “aptazyme ON/OFF ratio” value was found to be 1.13. Next, GGGUCGUUCGUCUAUAAUCGCGUGGAUAUGGCACGCAAGUUUCUACCGGGCACCGUAAAUGUCCGACUGGAGCCGUUCGGGCGGCUAUAAACAGACCUCAGGCCCGAAGCGUGGCGGCACCUGCCGCCGGUGGUAAAAAAGAUCGGAAGAGCACACGUCU [G9C U10G C13U]: 1.49; GGGUCGCUGAGCGAUAAUCGCGUGGAUAUGGCACGCAAGUUUCUACCGGGCACCGUAAAUGUCCGACUGGAGCCGUUCGGGCGGCUAUAAACAGACCUCAGGCCCGAAGCGUGGCGGCACCUGCCGCCGGUGGUAAAAAAGAUCGGAAGAGCACACGUCU [U7C U10A U11G C13G]: 1.17; GGGUCGGCGCGGGAUAAUCGCGUGGAUAUGGCACGCAAGUUUCUACCGGGCACCGUAAAUGUCCGACUGGAGCCGUUCGGGCGGCUAUAAACAGACCUCAGGCCCGAAGCGUGGCGGCACCUGCCGCCGGUGGUAAAAAAGAUCGGAAGAGCACACGUCU [U7G U8C U10C U11G C12G C13G]: 1.08. Next, GGGUCGAGGCCGGAUAAUCGCGUGGAUAUGGCACGCAAGUUUCUACCGGGCACCGUAAAUGUCCGACUGGAGCCGUUCGGGCGGCUAUAAACAGACCUCAGGCCCGAAGCGUGGCGGCACCUGCCGCCGGUGGUAAAAAAGAUCGGAAGAGCACACGUCU [U7A U8G U10C U11C C12G C13G]: 1.26; GGGUCGUUGCCGCAUAAUCGCGUGGAUAUGGCACGCAAGUUUCUACCGGGCACCGUAAAUGUCCGACUGGAGCCGUUCGGGCGGCUAUAAACAGACCUCAGGCCCGAAGCGUGGCGGCACCUGCCGCCGGUGGUAAAAAAGAUCGGAAGAGCACACGUCU [U10C U11C C12G]: 1.07. Next, GGGUCGGAAACUAAUAAUCGCGUGGAUAUGGCACGCAAGUUUCUACCGGGCACCGUAAAUGUCCGACUGGAGCCGUUCGGGCGGCUAUAAACAGACCUCAGGCCCGAAGCGUGGCGGCACCUGCCGCCGGUGGUAAAAAAGAUCGGAAGAGCACACGUCU [U7G U8A G9A U10A U11C C12U C13A]: 1.07; GGGUCGUUCGGCGAUAAUCGCGUGGAUAUGGCACGCAAGUUUCUACCGGGCACCGUAAAUGUCCGACUGGAGCCGUUCGGGCGGCUAUAAACAGACCUCAGGCCCGAAGCGUGGCGGCACCUGCCGCCGGUGGUAAAAAAGAUCGGAAGAGCACACGUCU [G9C U10G U11G C13G]: 1.12; GGGUCGACGCAUUAUAAUCGCGUGGAUAUGGCACGCAAGUUUCUACCGGGCACCGUAAAUGUCCGACUGGAGCCGUUCGGGCGGCUAUAAACAGACCUCAGGCCCGAAGCGUGGCGGCACCUGCCGCCGGUGGUAAAAAAGAUCGGAAGAGCACACGUCU [U7A U8C U10C U11A C12U C13U]: 1.27. Turning to GGGUCGGUACUUUAUAAUCGCGUGGAUAUGGCACGCAAGUUUCUACCGGGCACCGUAAAUGUCCGACUGGAGCCGUUCGGGCGGCUAUAAACAGACCUCAGGCCCGAAGCGUGGCGGCACCUGCCGCCGGUGGUAAAAAAGAUCGGAAGAGCACACGUCU [U7G G9A U10C C12U C13U], the “aptazyme ON/OFF ratio” value turned out to be 1.19.

Take GGGUCGGUUACUAAUAAUCGCGUGGAUAUGGCACGCAAGUUUCUACCGGGCACCGUAAAUGUCCGACUGGAGCCGUUCGGGCGGCUAUAAACAGACCUCAGGCCCGAAGCGUGGCGGCACCUGCCGCCGGUGGUAAAAAAGAUCGGAAGAGCACACGUCU [U7G G9U U10A U11C C12U C13A]: the “aptazyme ON/OFF ratio” value was determined as 1.39. Turning to GGGUCGACGGCUUAUAAUCGCGUGGAUAUGGCACGCAAGUUUCUACCGGGCACCGUAAAUGUCCGACUGGAGCCGUUCGGGCGGCUAUAAACAGACCUCAGGCCCGAAGCGUGGCGGCACCUGCCGCCGGUGGUAAAAAAGAUCGGAAGAGCACACGUCU [U7A U8C U10G U11C C12U C13U], the “aptazyme ON/OFF ratio” value stood at 1.51. With GGGUCGGUGAUGUAUAAUCGCGUGGAUAUGGCACGCAAGUUUCUACCGGGCACCGUAAAUGUCCGACUGGAGCCGUUCGGGCGGCUAUAAACAGACCUCAGGCCCGAAGCGUGGCGGCACCUGCCGCCGGUGGUAAAAAAGAUCGGAAGAGCACACGUCU [U7G U10A C12G C13U], the “aptazyme ON/OFF ratio” value was 1.17.
